In a protein production outcome set (Wang et al. 2014) one finds protein production data, which are given here for 16 sequences.

The data set is described as follows: label from the status in PepcDB records.
As to “MHLSAYLLLVASLLFALFFAGTAAIQIWQGRTTALPWMEKGHLMLTAFMSVASAVLLHALANFDFSLVYVASYTDRALPLFYRLTAFWAGQAGSMLFWGWSVALFGVFFLFSPVYRRVSEPTRMWFWLLFLAMMGFFLLVLTCWSNPFTVVDPAPADGNGLNPLLQNPGMIFHPPLLFLGYGGFAIPGCLALAQSLSGMRLSEGAWADHARPFTLVAWLFLTAGIVLGGWWAYMELGWGGYWAWDPVENASLIPWLIASAYLHTAVIEARRNKLHRVNTFLMALTTISAFFATYLVRSGVVESLHAFGDGGVGTPLLIFIIVFTAVALGGSILWKHPDAKPLSGVESREGFLVMVAWVLLALGAIILVATMWPVFSKFWVDKPVGLEPAFYNRVCLPLFAVLVVMLAICPWLGWKGGLRNKVGAVTALGLFVGAAGGIWAAGYTIPTAVLGAAGAIAALGGIVMLLATEPHLRRSPQSLAAYGVHIGLALTALGVAFSGPYKTEHEVIMQQGDTVQVAGYDVTFKALYEGEGPGYIFIEAELDVKKNGSDVGMAQPQRRIYSKFGKQAFAEASTIPGLGNEFYAVLLGVDREGKATLHLNVTPLINWVWIGSIIMCLFPFIGMRRRKTAEA”, the protein production result was “failed”.
Consider “MLKSGETNGVQSNVVRASSRMRGLAEPGIKDNQGRTWRRLIVTDCFISTKVWYSLYKGTLEATRKRVSDYISDLTMVEIIGLQAFTTDGGIAS”, for which the protein production result is “failed”.
Consider “MGHHHHHHSHGQQSVSNKLLAWSGVLEWQEKPKPASVDANTKLTRSLPCQVYVNHGENLKTEQWPQKLIMQLIPQQLLTTLGPLFRNSRMVQFHFTNKDLESLKGLYRIMGNGFAGCVHFPHTAPCEVRVLMLLYSSKKKIFMGLIPYDQSGFVNGIRQVITN”, for which the protein production result is given as “not failed”.
“MKALNDSYDVVVVGAGPAGSMASYNASKNGAKTLLIEKSQEIGTPVRCAEAVPRLEDFGINPDPSFVKSYIRGGYLIAPNGKKIVVKGGKTDGYVVERKVFDKFLAIRSGQAGTQIAVKSRVTKIEKTDDGYNVFVNYLGDEYIVKSKIVIAADGVESNIAEYAGLKSKKNPKEICSCAEYEMTNVKLLNNEMMEFYFGDICPKGYIWLFPKGDTVNVGIGVIDSKKRAIDYLDEFLTHPLVEGRLDNAVPVEFKVGGDPVGGPIKKTVADNIMVVGDAAGHVSPLTGGGIGLSMDCGLMAGDVAAQSIKAENYSEEFLDLYEKKWKEKYYKLLMNDLKYKNILQKLSDDELNAIANSIPENLEEVDVGKLAIKIVAKAPSLLRHFKELL”: the protein production result is on record as “failed”.
In the case of “MAKRGREAKSAERTRQLAESEARLRLMADAAPFPLAMNRLAGGELIYANARAEELFGARLRPDRPLRVQDFYAEPAEREKVARALLEGRAVRDREVRLRDAGGRPFWALVSCELVQSGETWYVINGVNDISERKRLEQSLQDANAALRSHLREIELLQQGLREQALRDPLTGLFNRRHLDDILPRVLAHMLALHREVAVLMVDADHFKRINDTYGHRCGDAVLTALGACLSDHFRSGDIVCRYGGEEFFVLLPGATLEAAYAKAEGLRRAVGERPMEALGHSLAVTLSIGLALCPLHGSDAESVVRAADEALYQAKRQGRDRVCVAARLQSLLS” it was “failed”; in that of “MSRPEGHTLRRRLAGVVFVLVPALLIWLAVAVYDKKFTDSDPVVVETGSAGNQMHPGAEVKLRGVVVGEVRAIDATGDGARLTLAMKPGALDDVPSDVRAQMLPTTLFGERFVALVPPANPSPEPLAAGAVVPQDRSANAIELQQVLDDVLPMLTAVQPQKLSATLSAVSQALEGRGERLGDTLTLLDEHLAEFNPNLPALNRDLKELVKVSHVYADAAPDVITALTDFTTTSGTLAEQEADLAATLGATTRTAEDVTAFLHKNKDNIIRLGDTSRPTLELLAEYSPAFPCTLRTLAEFVPAMDKALGKGTDRPGIHVDVTSVASRGAYRPGRDTPVYDSGGGPRCPSVPYLGALPRPTARTAAPAAEQDLGPANSPQENDLVNELLAPAAGKSPGDLPDWSSLLVGPVYRGTEVTLGLEHHHHHH”, “failed”.
Consider “MQVISPSSPAPRFAGKERFSEVYGELNDDFGSKLKISSKEEENRDDDSWWNQNGTDKDDEGREEDFSFASVNADNSPITADEAFEDGQIRPVYPLFNRNIFFDDPEEKTLRSPLKKLFVESTTTEEEEEESDTVGPYCSWTNRTVEQASPETCRKSNSTGFSKLWRFRDLVLRSNSDGKDAFVFLSNGSSSTSSTSSTAARLSGVVKSSEKGKEKTKTDKKKDKMRTKSAHEKLYMRNRAMREEGKRRSYLPYKHVGFFTNVNGLTRNVHPY”, for which the protein production result is listed as “failed”.
As to “SGRPFVEMYSEIPEIIHMTEGRELVIPCRVTSPNITVTLKKFPLDTLIPDGKRIIWDSRKGFIISNATYKEIGLLTCEATVNGHLYKTNYLTHRQTNTIIDVQISTPRPVKLLRGHTLVLNCTATTPLNTRVQMTWSYPDEKNKRASVRRRIDQSNSHANIFYSVLTIDKMQNKDKGLYTCRVRSGPSFKSVNTSVHIYDKAFITVKHR”, the protein production entry was “not failed”.
In the case of “MKKRFSNKVLIIGYGSVSQCTLPLLLDKLDIPLENITLIDFEDKSKALKKYTNQGLTFVREKITPENLDQVLSQNMENEGMIIDLSWNIDANEIVKWCHDHDVLYVNTSVEVWDPAEKFLTQSLLEKSLYLRQMRLQELSRDWKDAPTAVVDHGANPGLITHFVKQGLLDIAARTCEDKKVSPEDEQEIALLAKNRDFARLARKLGIRVIHCSERDTQIASRPKEVNEFVGTWSIEGLREEGTAPVEIAWGTHESKLPPLAHIPPYGPKNVILLPQMGVNAWVRSWIPDEEIVGMAIRHGESYGLSKLLTVWEGEKAVYRPTVHYAYMPSHDTLSSLCELRGRNYELQPRLRIMTNEIVSGEDIMGALLMGHSYNSWWTGSALSIEEARSLAPGQNATTLQVAAGIVAAILWMLENPREGVKTPEDLPHDFVLDIARPYLGKFISTPSDWTPLKNRKIFFKESPAVKHDPDPWQFENFIFVGLEHHHHHH” it was “not failed”.
In the case of “MEGYRLLYPMRTYLIVSGHGEETNVMAADWVTVVSFDPFIVGVAVAPKRTTHKLIKKYGEFVISVPSLDVLRDVWIAGTKKGPSKLKEMSVTLIPSKKVKVPSIEEALANIECRVIDARSYGDHTFFVGEVVGYTYKDYAFEKGKPNLKAKFLAHVSWSEFVTFSEKVHKAE” it was “not failed”; in that of “MLETLHLTPLDRWIDAWLAHQRALGRAYDNEGWILGHLRRFIVSSEAGDLDQKGFDRWCASLRHLSPTTRRGRQFVVRKLCLFRRRAEPGCFVPDSIYFARKLPYRRPVILEPAQVSRMLAAADGLAPTTNSPLLPAVMRLATIILYTAGLRRGELARLTLDDVEPQSGLLRIRQSKFHKSRLVPLSPDAAGALRTYLHLRLAPSFNADPSSALLCCGRAGRRGYTGAGLGQAINRLFVTADVRDSEGRLPRVHDIRHSFGVQALIRWYRAGADVQSCLPSLAIYMGHVSVVSTAHYLHFVPTMRELASSRFEAAFGNIVVEAKP”, “failed”.
For the sequence “MSEVHTTIIDLDAGAVFSGTPSGRIIKGFDKPCAHTPNIDPDYVFHECSRDIVVWLMDSSDPLYVFGPTGSGKTSAIKQLAARLNYPVFDVTGHGRLEFPDLVGHLSVRDGSMEFQYGPLALAMRHGGILLLNEIDLLEPATATGFNGILDGEPLCIPENGGEIITPHPMFRFAATANTNGGSDDTGLYQGTLRQNLAFLDRFWLCEMPYPAPEAEKALLERRAPMLPDDIRTRMVDYANEVRRLFMGESGTTYGHSIEVTFSTRTLLRWADLTVRFQPLARQGIQPLTYALDRALGFKASKDTRTTLHELAQRLFPQHAATGE”, the protein production entry is recorded as “failed”.
Consider “MSVGIDSLDNDHKKLIAILAQLMSAKNEKLGQDDIDVIFERLEGYCLSHFAREEALLAKIDYKQLEAHKLSHQAFIKKIPQLKEQWFAKVTESEAVKDKIILFLQQWLIKHILEEDLDYVPAIHCFQEFSRYEKDKKAKHPWLRFFSIKLSHCLILSHRVLITTLLPVAAVLLLCFFILKDNYQRYDSISKVLGLNSVIEQVNGISHSLQAERGLSTGYTSSNYRSFAKQLRQRRKSTDAKIQYFLWLLEQSANQEIKVSVSRYMTNFQEIVANLSRHRMHLDQKIVGFEETYHAYTQLIGQLLSVSDHLVHIEIGSSHANDISAINAILRYKEFMGQIRAIGMKMAENHQENIYGNVEVSLLIGKQLNTLLIFKNAANSAQKSICGHYCDAFALRQHLESSYLETMQFEDKDVRAARWFKVMSAKVDNLNSVVQRLINEFDGQIYIESQKLKKEGYLIILAMLIFLLVAIFFALVLNYSIISPVRKLTYALNDMSEGQNNIHFNHIDSKDEIGSMQLAFEKLRRKLLQGDVYKATVSQQQKEIKYRKSQQDHFQQLALTDALTGAVNRHHFNEVLDQEIANVNNHGSPLSIMLLDIDHFKSVNDRYGHGVGDEVLVMFYQTCVEAVRSSDVVARIGGEEFVIIMPNTQLVNAQKFAERLRQKIAKLELNIANNQISVTVSIGVSQWQSEYFTNAETFVAHADKSLYQAKNSGRNKVVVAQQ”, for which the protein production result was “failed”.
As to “MNQLPNCPKCLSEYCYEDGDVLICPECTHEWPKNSNNNDEESAKIIKDANGNLLQNGDTITVVKDLKIKGSSQVIKVGTKVKNIRLVDGDHDIDCRIDGIGAMKLKSQFVKKILEHHHHHH”, the protein production result is reported as “failed”.
Turning to “MTIHDNTLFSADERSRFLSSYASLIRTLAPDRQLVKKVRSLLSRFTELGCFDRDKNGMHGLLRNMEVARIASCEIGLGIEAIGALLFYRPAMKGLTRPEEIAELMGEDVARLIDLLLKTSEIYMRNTAINTANFEHFLLSIAEDIRVVLLIIADRSYLLRQAKDMVCAEERTALAAEVSYLYAPLAHRLGLYAIKSEMEDLCLKYTDRQTFDFIKRKLGETKRSRDAYIEAFIAPLRRRLDEALPNIPYEMKGRTKSINSIRNKLRQQGIEFESIYDLFAIRIILDVPVKDEKAACWHVYSIITDMYQPNPQRMKDWISIPKSNGYESLHVTVMGPQNRWVEVQIRSRRMDEVAERGLAAHWKYKGIKSESGLDEFLTSVRETLEARDHSSDDSAETVKNFKMNLFTDEIYAFTPTGELIKLPQGASVLDFAFAIHSRIGCQAVGANVNGKNVPLKHKLENGDSVSIITSAQQTPKKDWLSYVVSSKARNKIKQQLRLQMESSIGVVKELLNRRLKNRKLPFEEAVFTRVVRRKGFKHLTDFYMEIAADRLDVQEVLELYSHELEEEQRRDAGSGAARRSADTFVAHPPKEEEIVKGGKSDVLVIDNNMTGVEYSFGKCCNPIYGDSVFGFVSNSGIKIHRTDCPNAPDMFSRYGYRIIEARWSGKGSTGYEATLHVIGQDNLAIVTNITSVINKEPGVSLRAYSINSKDNLFEGVFTVEVPDTSTLSILLRKIRATHGVKSAERH”, the protein production result was “failed”.
“MVFMANKKKTKGKKTRRPTKAEIERQRAIQRMITALVLTIILFFGIIRLGIFGITVYNVIRFMVGSLAYLFIAATLIYLYFFKWLRKKDSLVAGFLIASLGLLIEWHAYLFSMPILKDKEILRSTARLIVSDLMQFKITVFAGGGMLGALIYKPIAFLFSNIGAYMIGVLFIILGLFLMSSLEVYDIVEFIRAFKNKVAEKHEQNKKERFAKREMKKAIAEQERIERQKAEEEAYLASVNVDPETGEILEDQAEDNLDDALPPEVSETSTPVFEPEILAYETSPQNDPLPVEPTIYLEDYDSPIPNMRENDEEMVYDLDDDVDDSDIENVDFTPKTTLVYKLPTIDLFAPDKPKNQSKEKDLVRKNIRVLEETFRSFGIDVKVERAEIGPSVTKYEIKPAVGVRVNRISNLSDDLALALAAKDVRIETPIPGKSLIGIEVPNSEIATVSFRELWEQSDANPENLLEVPLGKAVNGNARSFNLARMPHLLVAGSTGSGKSVAVNGIISSILMKARPDQVKFMMIDPKMVELSVYNDIPHLLIPVVTNPRKASKALQKVVDEMENRYELFSKIGVRNIAGYNTKVEEFNASSEQKQIPLPLIVVIVDELADLMMVASKEVEDAIIRLGQKARAAGIHMILATQRPSVDVISGLIKANVPSRIAFAVSSGTDSRTILDENGAEKLLGRGDMLFKPIDENHPVRLQGSFISDDDVERIVGFIKDQAEADYDDAFDPGEVSETDNGSGGGGGVPESDPLFEEAKGLVLETQKASASMIQRRLSVGFNRATRLMEELEAAGVIGPAEGTKPRKVLMTPTPSE”: the protein production entry was “failed”.
